Experiment: yeast display, Sf9 membrane polyspecificity reagent, FACS + sequencing; frameworks hold sequencing errors
How it was run: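 Sorting gates, low and high (top ~1%), were placed on anti-HA fluorescence to track expression and on streptavidin fluorescence to track reagent binding. A clone's polyreactivity label is taken from the gate it came out of. The reagent was 10% biotinylated, detergent-solubilized Sf9 membrane, applied for 1 hour at 4 °C to galactose-induced yeast display cells.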

Row | Sequence | polyreactivity (PSR sort gate)
1 | QVQLVESGGGLVQAGGSLRLSCAASGSTFQYYAMGWYRQAPGKERELVDAISPSVDTTFYADSVKGRFTISRDNAKNTVYLQMNSLKPEDTAVYFCAKRYVDPLGSGTLGSWGQGTQVTVSS | low polyreactivity
2 | QVQLVESGGGLVQAGGSLRLSCAASGSTFRAYAMGWYRQAPGTEWELVAAISAGGSTNYADSVKGRFTISRDHAKNTVSLQMNCLKRDDTAVYYCAKGWYYVSPYGYRKRVYYWGQGTQVTVSS | high polyreactivity
3 | QVQLVESGGGLVQAGGSLRLSCAASGSTFRDYAMGWSRQAPGKERELVAVISSSGSRTNYADSVKGRFTISRDNAKNTVYLQMNSLKREDTAVYYCAADTTRRAPGYYYWGQGTQVTVSS | high polyreactivity
4 | QVQLVESGGGLVQAGGSLRLSCAASGSTFREYAMGWYIQAPGKERELVAAITSRGGSTYYADSVKGRFTISRDNAKNTVYLQMNSLKPEDTAVYYCAADHGTKAEYYYWGQRTQVTVSS | high polyreactivity
5 | QVQLVESGGGLVQAGGSLRLSCAASGSTFRFYAMGWYRQAPGKERELVAAISSGGSTNYADSVKGRFTISRDNAKNTVYLQMNSLKPEDTAVYYCNAEDYNGRQYYHKMDYWGQGTQVTVSS | high polyreactivity
6 | QVQLVESGGGLVQAGGSLRLSCAASGSTFRGNAMGWSRQAPGKERELVAAISSSGGSTYYADSVKGRFTISRDNAKNTVYLQMNSLKPEDTAVYYCAALYHWTYDYWGQGTQVTVSS | low polyreactivity
7 | QVQLVESGGGLVQAGGSLRLSCAASGSTFRGYAMGWYRKATGKERELVATNSGSDGTTYYADSVKGRFTISRENAKNTVYLQMNSLKPEDTAVYYCAAGETFEMYYWGQGTQVTVSS | low polyreactivity
8 | QVQLVESGGGLVQAGGSLRLSCAASGSTFRGYAMGWYRQAPGKEREFVAAITYTGSSTTYADSVKGRFTISRDNAKNTVYLQMNSLKPEDTAVYYCNKYTRFASSNMYYWGQGTQVTVSS | high polyreactivity
9 | QVQLVESGGGLVQAGGSLRLSCAASGSTFRGYAMGWYRQAPGKERELVAAISWSAGSTYYADSVKGRFTISRDNAKNTVYLQMNRLKPEDTAVYYCAKASVALRYFSYSLGRDYWGQGTQVTVSS | low polyreactivity
10 | QVQLVESGGGLVQAGGSLRLSCAASGSTFRGYAMGWYRQAPGKERELVAAITGSGDRTRYADSVKGRFTISRDNAKNTVYIQMNSLKPEDTAVYYCAKFCPHWAYYSWGQGTQVTVSS | high polyreactivity
11 | QVQLVESGGGLVQAGGSLRLSCAASGSTFRGYAMGWYRQAPGKERELVAAITSSGGSTYYADSVKGRFTISRDNAKNTVYLQMNSLKPEDTAVYYCAAEGGYWYTITYSYWLDYWGQGTQVTVSS | low polyreactivity
12 | QVQLVESGGGLVQAGGSLRLSCAASGSTFRGYTMGWYRQAPGKERELVATISYRSGSTSYADSVKGRFTISRDNAKNTVYLQMNSLKPEDTAVYYCNRVYSKPRYYYWGQGTQVTVSS | high polyreactivity
13 | QVQLVESGGGLVQAGGSLRLSCAASGSTFRHNAMGRYRPAPGKERELVAAITRSGGRTFYADSVKGRFTISRDNAKNTVYLQMNSLKPEDTAVYYCAAERITPYDSSSAYDYWGQGTQVTVSS | low polyreactivity
14 | QVQLVESGGGLVQAGGSLRLSCAASGSTFRIYAMGWYRQAPGKDRELVAGITRRGGSTFYADSVKGRFTISRDNANNTVYLQMNSLKPEDTAVYYCAARFRGGMDYWGQGTQVTVSS | high polyreactivity
15 | QVQLVESGGGLVQAGGSLRLSCAASGSTFRIYAMGWYRQAPGKERELVAAISRSGGSTYYADSVKGRFTISRDNAKNTVYLQMNSLKPEDTAVYYCAAQPSYRYYKSYDYWGQGTQVTVSS | high polyreactivity
16 | QVQLVESGGGLVQAGGSLRLSCAASGSTFRIYAMGWYRQAPGKERELVAAISSGGRTNYADSVKGRFTISRDNAKNTVYLQMNSLKPEDTAVYYCNAVFLPTYHFDYWGQGTQVTVSS | high polyreactivity
17 | QVQLVESGGGLVQAGGSLRLSCAASGSTFRIYVMGWYRQAPGKEREFVAAISRGGGSTYYADSVKGRFTISRDNAKNTVYLQMNSLKPVDTAVYYCAAVTRDYGSRSGLDYWGQGTQVTVSS | high polyreactivity
18 | QVQLVESGGGLVQAGGSLRLSCAASGSTFRKYAMGWYRHAPGKEREFVAAITWSTGTTYYADSVKGRFTISRDHAKNTVYLQMNSLKPEDTAVYDCAADSQPPHELYESIEHESWGQGTQVTVSS | low polyreactivity
19 | QVQLVESGGGLVQAGGSLRLSCAASGSTFRKYAMGWYRQAPGKERELVAAISRGGTSTYYADSVKGRFTISRDNAKNTVYLQMNSLKPEDTAVYYCRYFRYSYGTKYDYWGQGTQVTVSS | high polyreactivity
20 | QVQLVESGGGLVQAGGSLRLSCAASGSTFRLNAMGWYRQAPGKERELVAAISWTGGSTYYADSVKGRFTISRDNAKNTVSLQMNSLKPEDSAVYYCATVSYYDRYDYDYWGQGTQVTVSS | low polyreactivity
21 | QVQLVESGGGLVQAGGSLRLSCAASGSTFRLYAMGWYRQAAGKERELVAAISYSGGSTYYADSVKGRFTISRDTAKNTVYLQMNSLKPEETAVYYCNAVRRHGGYYDYGYWGQGTQVTVSS | high polyreactivity
22 | QVQLVESGGGLVQAGGSLRLSCAASGSTFRLYAMGWYRQAPGKERELVAAISSRGGSTYYADSVKGRFTISRDNAKNTVYLQMNSLKPEDTAVYYCATDYITPSSEGDYWGQGTQVTVTS | high polyreactivity

Row | Sequence | polyreactivity (PSR sort gate)
23 | QVQLVESGGGLVQAGGSLRLSCAASGSTFRNAMGWYRQAPGKERELVAAISYSGGRTYYADSVKGRFTISRDNAKNTVYLQMNSLKPEDTAVYYCASPGVSWSTRSYYYWGQGTQVTVSS | high polyreactivity
24 | QVQLVESGGGLVQAGGSLRLSCAASGSTFRNYAMGWYRQAPGKERELVAAITKRGGTTYYADSVKGRFTISRDNAKNTCYLQMNSLKPEDTAVYYCATGYNSSPFDYWGQGTQVTVSS | high polyreactivity
25 | QVQLVESGGGLVQAGGSLRLSCAASGSTFRNYAMGWYRQAPGKERELVAAITKRGGTTYYADSVKGRFTISRDNAKNTVYLQMNSLKPEDTAVYYCATRQLSKVKDMDYWGQGTQVTVSS | high polyreactivity
26 | QVQLVESGGGLVQAGGSLRLSCAASGSTFRPNAMGWYRQAPGTERELVAAITSGGSTYYADSVKGRFTISRDNAKNTVYLQMNRLKPEDTAVYYFNKDKFWSYPVQVNLDYWGQGTQVTVSS | low polyreactivity
27 | QVQLVESGGGLVQAGGSLRLSCAASGSTFRPYAKGWYRQAPGKERELVAAISNGGNTNYADSVKGRFSISRDNAKNTVYLQMNSLIPEDTAFYYCAKTFRGQPYLRYRYYYWGQGTQVTVSS | high polyreactivity
28 | QVQLVESGGGLVQAGGSLRLSCAASGSTFRPYAMGWYRQAPGKERELVAAITFNGDTYADSVKGRFTISRDNAKNTVYLQMNSLKPEDTAVYYCNAESVSSPPYYDYWGQGTQVTVSS | high polyreactivity
29 | QVQLVESGGGLVQAGGSLRLSCAASGSTFRQYAMGWYRQAPGKERELVAAINWSGSSTYYADSVKGRFTISRDNAKNTVYLQMNSLKPDDTAVYYCAAVVQYWWWKGRGYWGQGTQVTVSS | high polyreactivity
30 | QVQLVESGGGLVQAGGSLRLSCAASGSTFRRNAMGWYRKAPGKERELVAAISSTGGSTRYADSVKGRFTISRDNAKNTVYLQMNSLKPEDTAVYYCAARFSASGSFYYWGQGTQVTVSS | high polyreactivity
31 | QVQLVESGGGLVQAGGSLRLSCAASGSTFRRNAMGWYRQAPGKERELVAAISRGGNTKYADSVKGGFTISRDNAKNTVYLQKNSLKPEDTAVYYCATYYFSSSHLYGYWGQGTQVTVSS | high polyreactivity
32 | QVQLVESGGGLVQAGGSLRLSCAASGSTFRRNAMGWYRQAPGKERELVAAITRRGTSTYYADSVKGRFTISRDNAKNTVYLQMNSLKPEDTAVYYCNAPRPYQDGKFGYWGQGTQVTVSS | high polyreactivity
33 | QVQLVESGGGLVQAGGSLRLSCAASGSTFRRYAMGWYRQAPGKERELVAAISSSGDSTYYADSVKGRFTISRDNAKNTVYLQMNSLKPEDTAVYYCATRLRQVYRSQSSGYDYWGQGTQVTVSS | low polyreactivity
34 | QVQLVESGGGLVQAGGSLRLSCAASGSTFRSYAMGWNRQAPGKERELVAAISGRGGNTYYADSVKGRFTISRDNAKNTVYLLMNSLKPEDTAVYYCARKTVYYGSDYWGQGTQVTVSS | high polyreactivity
35 | QVQLVESGGGLVQAGGSLRLSCAASGSTFRSYAMGWYIQAPGKERELVARISYRTGSTYYADSVKGRFTISRDNAKNTVYLQMNSLKPEDTAVYYCATRGSYVGGLYDYWGQGTQVTVSS | high polyreactivity
36 | QVQLVESGGGLVQAGGSLRLSCAASGSTFRSYAMGWYRQAPGKERELVARISYRTGSTYYADSVKGRFTISRDNAKNTVYLQMNSLKPEDTAVYYCATRGSYVGGLYDYWGQGTQVTVSS | high polyreactivity
37 | QVQLVESGGGLVQAGGSLRLSCAASGSTFRTNAMGWYRQAPGKERELVADISKRGGNTYYADSVKGRFTISRDNAKNTVYLQMNCLKPEDTALYDCAAYRVYGYGGGYDYYYWVQGTQVTVSS | high polyreactivity
38 | QVQLVESGGGLVQAGGSLRLSCAASGSTFRVYAMGWYRQATVKERELVAAISGSGGSTYYADSVKGRFTISRYNAKNSVYLQMNSLKPEDTAVYYCAARSWYTEYYWGQGTQVSVSS | high polyreactivity
39 | QVQLVESGGGLVQAGGSLRLSCAASGSTFRVYVMGWYRQAPGKERELVAAISQRGGSTYYADSVKGRFTISRDNAKNTVYLQMNSLKPEDTAVYYCAADQPGARTWSNRESDYWGQGTQVTVSS | high polyreactivity
40 | QVQLVESGGGLVQAGGSLRLSCAASGSTFRWNAMGWYRQAPGKERELVAAISWSGGTTYYADSVKGRFTISRDNAKNTVYLQMNSLKPEDTAVYYCAARTLWQGYWGQGTQVTVSS | high polyreactivity
41 | QVQLVESGGGLVQAGGSLRLSCAASGSTFRWNAMGWYRQAPGKERELVAAITWSGGSTYYADSVKGRFTISRDNAKNTVYLQMNSLKPEDTAVYYCNAGGLFQYDSWGQGTQVTVSS | low polyreactivity
42 | QVQLVESGGGLVQAGGSLRLSCAASGSTFRWNAMGWYRQAPGKERELVATITWGGGSTYYADSVKGRFTISRDNAKNTVYLQMNSLKPEDTAVYYCARRKRARYSYYQYNYWGQGTQVTVSS | high polyreactivity
43 | QVQLVESGGGLVQAGGSLRLSCAASGSTFRYNAMGWYIQAPGKERELVAAITSTGDSTYYADSVKGRFTISRDNAKNTVYLQMNSLKPEYTAVYYCAARSYASPGWRYEYWGQGTQVTVSS | low polyreactivity

Reference: the nanobody polyreactivity screen of Harvey et al. (2022)
